The term Kd denotes the concentration at which binding is half-saturated. As usually defined, the koff is the first-order rate constant of dissociation. The low end stands for slow dissociation, the high end for fast dissociation. The kon is the second-order rate constant of association.

Numbering of substitutions follows the chain as printed. Read-outs that look alike come from different tables or passages of the source.

The target of test [1] is T1, human FcRI protein (MednaBio, E1031) (human, UniProt P12314 16-288, limits assumed).
T1 construct: Bought; loaded on anti-penta-HIS biosensors; also called FcγRI
T1 sequence (P12314 16-288 limits assumed): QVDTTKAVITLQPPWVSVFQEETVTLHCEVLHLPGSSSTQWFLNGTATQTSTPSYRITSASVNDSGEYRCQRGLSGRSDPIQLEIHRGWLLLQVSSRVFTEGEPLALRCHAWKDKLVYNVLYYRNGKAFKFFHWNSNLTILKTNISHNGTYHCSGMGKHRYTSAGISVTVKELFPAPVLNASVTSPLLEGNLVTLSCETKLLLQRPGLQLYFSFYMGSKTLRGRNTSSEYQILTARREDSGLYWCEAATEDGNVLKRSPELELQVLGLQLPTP
Put plainly: BLI. The procedure, abridged:
(§1)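 On an Octet Red96 System, anti-penta-HIS biosensors loaded with commercial human Fc receptor proteins were dipped into test IgG diluted 1:3 over 8 points from 300 nM. Fcγ receptor runs used pH 7.2 and FcRn runs used pH 6. Global fitting of these biolayer interferometry data gave the values for Kd, kon and koff, using a 1:1 binding model.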

Test [2] addresses T2, human FcRIIA protein (MednaBio, E1033) (human, UniProt P12318 34-218, limits assumed).
T2 construct: Bought; also called FcγRIIA
T2 sequence (looked up): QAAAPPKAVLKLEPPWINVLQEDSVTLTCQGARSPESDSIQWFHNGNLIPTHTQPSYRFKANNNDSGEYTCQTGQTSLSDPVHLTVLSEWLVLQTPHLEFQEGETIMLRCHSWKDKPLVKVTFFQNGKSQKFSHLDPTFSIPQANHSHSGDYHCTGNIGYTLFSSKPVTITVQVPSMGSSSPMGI
Briefly: BLI. The procedure, abridged:
as §1

Test [3] addresses T3, human FcRIIB/C protein (MednaBio, E1034) (human, UniProt P31994 43-217, limits assumed).
T3 construct: Bought as FcRIIB/C; also called FcγRIIB; CD32B
T3 sequence (looked up): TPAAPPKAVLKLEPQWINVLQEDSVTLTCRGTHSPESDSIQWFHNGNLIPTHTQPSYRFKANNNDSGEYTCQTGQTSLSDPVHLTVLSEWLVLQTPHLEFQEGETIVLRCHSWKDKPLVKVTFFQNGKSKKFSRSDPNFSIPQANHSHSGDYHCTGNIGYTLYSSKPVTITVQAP
Briefly: BLI. The gist of the method:
as §1
(In general: In BLI a coated tip is dipped into the sample, and binding shifts an interference pattern.)

The target in test [4] is T4, human FcRIIIA-F158 protein (MednaBio, E1036) (human, UniProt P08637 17-208).
T4 construct: Bought; also called FcγRIIIA(F)
T4 sequence (P08637 17-208 limits assumed): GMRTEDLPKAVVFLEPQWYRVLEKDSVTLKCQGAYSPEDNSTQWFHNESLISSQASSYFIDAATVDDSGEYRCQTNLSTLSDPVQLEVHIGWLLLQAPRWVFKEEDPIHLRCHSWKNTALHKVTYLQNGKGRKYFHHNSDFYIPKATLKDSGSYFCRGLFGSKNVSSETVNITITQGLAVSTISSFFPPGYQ
Put plainly: BLI. The gist of the method:
as §1

In test [5] the target is T5, human FcRIIIA-V158 protein (MednaBio, E1035) (human, UniProt P08637 17-208).
T5 construct: Bought; also called FcγRIIIA(V); FcgRIIIA(V)
T5 sequence (P08637 17-208 F176V): as the sequence (P08637 17-208 limits assumed) above, with F160V counted along it
Briefly: BLI. The gist of the method:
as §1

The target in test [6] is T6, human FcRIIIB protein (MednaBio, E1037) (human, UniProt O75015 17-200).
T6 construct: Bought; also called FcγRIIIB; FcgRIIIB
T6 sequence (O75015 17-200 limits assumed): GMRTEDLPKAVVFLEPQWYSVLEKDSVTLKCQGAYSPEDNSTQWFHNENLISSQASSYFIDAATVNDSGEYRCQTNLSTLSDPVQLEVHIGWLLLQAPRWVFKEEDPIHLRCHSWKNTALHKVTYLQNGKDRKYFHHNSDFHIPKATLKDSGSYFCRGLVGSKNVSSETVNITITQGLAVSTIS
Briefly: BLI. The procedure, abridged: as §1

For test [7], the target named is T7, human FcRn protein (MednaBio, E1032) (human, UniProt P55899 24-297; P61769 21-119).
T7 construct: Bought; assays at pH 6
T7 sequence (P55899 24-297 limits assumed, form in doubt, chain 1 of 2): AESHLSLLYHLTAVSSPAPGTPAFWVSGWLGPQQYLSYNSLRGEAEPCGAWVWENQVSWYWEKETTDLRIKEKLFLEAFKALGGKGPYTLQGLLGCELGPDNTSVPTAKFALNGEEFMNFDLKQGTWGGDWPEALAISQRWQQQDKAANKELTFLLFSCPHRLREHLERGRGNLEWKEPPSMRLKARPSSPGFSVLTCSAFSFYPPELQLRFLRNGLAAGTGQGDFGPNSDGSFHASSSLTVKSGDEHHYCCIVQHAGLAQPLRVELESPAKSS
T7 sequence (P61769 21-119 limits assumed, form in doubt, chain 2 of 2): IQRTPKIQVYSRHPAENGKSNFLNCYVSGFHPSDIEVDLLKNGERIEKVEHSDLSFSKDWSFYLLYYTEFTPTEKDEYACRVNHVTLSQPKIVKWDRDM
Put plainly: BLI. The procedure, abridged: as §1

Test [8] addresses T8, human FcγRIIC expressed on CHO cells (human, UniProt P31995 43-323).
T8 construct: whole, on cells
T8 sequence (looked up): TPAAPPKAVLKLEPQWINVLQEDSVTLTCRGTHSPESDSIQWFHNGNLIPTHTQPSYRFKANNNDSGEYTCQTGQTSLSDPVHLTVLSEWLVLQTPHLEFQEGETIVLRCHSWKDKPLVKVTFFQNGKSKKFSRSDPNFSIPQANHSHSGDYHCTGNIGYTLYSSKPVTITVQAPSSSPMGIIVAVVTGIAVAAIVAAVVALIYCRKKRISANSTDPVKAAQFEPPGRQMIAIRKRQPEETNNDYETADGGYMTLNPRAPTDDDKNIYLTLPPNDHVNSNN
Put plainly: FACS, CHO cells expressing FcγRIIC. Here is the method:
For FACS analysis of the IgG mutants' binding to different FcγRs, FcγR overexpressing CHO cells were harvested using trypsin-EDTA and were suspended in cold staining buffer (3% BSA in PBS). Test IgG mutants, which were diluted in staining buffer, were added into the cells. The mixture was incubated 4° C. for 2 hours, and then washed twice with cold staining buffer and re-suspended in PE-labeled anti-human IgG followed by incubation at 4° C. for 2 hours. The mixture was washed twice with staining buffer and re-suspended in 2% PFA in PBS for FACS.
Background: Flow cytometry measures light scatter and fluorescence of single cells or particles in a stream.

Test [9] concerns the target T1, human FcRI protein (MednaBio, E1031). Put plainly: BLI. The gist of the method: as §1
The source holds these as a separate data set.

Test [10] addresses T2, human FcRIIA protein (MednaBio, E1033). Briefly: BLI. The gist of the method: as §1
This is another data set of the same source.

Test [11] concerns the target T3, human FcRIIB/C protein (MednaBio, E1034). Briefly: BLI. The gist of the method: as §1
The source holds these as a separate data set.

The target in test [12] is T7, human FcRn protein (MednaBio, E1032). Briefly: BLI. The procedure, abridged: as §1
The source holds these as a separate data set.

Test [13] deals with T1, human FcRI protein (MednaBio, E1031). Put plainly: BLI. The procedure, abridged:
as §1
This is another data set of the same source.

In test [14] the target is T2, human FcRIIA protein (MednaBio, E1033). Put plainly: BLI. The procedure, abridged: as §1
The source holds these as a separate data set.

Test [15] addresses T3, human FcRIIB/C protein (MednaBio, E1034). Put plainly: BLI. The gist of the method: as §1
The source holds these as a separate data set.

Test [16] addresses T4, human FcRIIIA-F158 protein (MednaBio, …). Put plainly: BLI. The gist of the method: as §1
This is another data set of the same source.

In test [17] the target is T5, human FcRIIIA-V158 protein (MednaBio, …). Briefly: BLI. The procedure, abridged:
as §1
The source holds these as a separate data set.

The target in test [18] is T6, human FcRIIIB protein (MednaBio, E1037). Put plainly: BLI. The procedure, abridged:
as §1
The source holds these as a separate data set.

For test [19], the target named is T7, human FcRn protein (MednaBio, E1032). Put plainly: BLI. The procedure, abridged:
as §1
This is another data set of the same source.

The target in test [20] is T9, human FcγRI expressed on CHO cells (human, UniProt P12314 16-374).
T9 construct: whole, on cells
T9 sequence (P12314 16-374): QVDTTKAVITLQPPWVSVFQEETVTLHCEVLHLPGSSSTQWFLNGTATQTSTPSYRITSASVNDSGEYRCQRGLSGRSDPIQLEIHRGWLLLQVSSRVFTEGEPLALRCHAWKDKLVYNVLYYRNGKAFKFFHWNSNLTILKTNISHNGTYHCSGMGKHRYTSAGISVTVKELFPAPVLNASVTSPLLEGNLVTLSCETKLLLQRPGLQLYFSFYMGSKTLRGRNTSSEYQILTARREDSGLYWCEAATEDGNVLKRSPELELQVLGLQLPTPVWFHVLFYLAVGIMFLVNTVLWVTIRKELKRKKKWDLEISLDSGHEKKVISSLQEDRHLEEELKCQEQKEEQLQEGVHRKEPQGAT
Briefly: FACS, CHO cells expressing FcγRI. The gist of the method: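 Trypsin-harvested CHO cells overexpressing each FcγR were incubated 2 h at 4 °C with IgG mutants in 3% BSA/PBS. Bound IgG was detected with PE-labeled anti-human IgG (2 h, 4 °C), then cells were fixed in 2% PFA and analysed by flow cytometry.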

B1: anti-CD137 IgG1 with Fc variant G1m19 (antibody)
heavy: EVQLVQSGAEVKKPGESLRISCKGSGYSFSTYWISWVRQMPGKGLEWMGKIYPGDSYTNYSPSFQGQVTISADKSISTAYLQWSSLKASDTAMYYCARGYGIFDYWGQGTLVTVSSASTKGPSVFPLAPSSKSTSGGTAALGCLVKDYFPEPVTVSWNSGALTSGVHTFPAVLQSSGLYSLSSVVTVPSSSLGTQTYICNVNHKPSNTKVDKKVEPKSCDKTHTCPPCPAPELLSVFLFPPKPKDTLMISRTPEVTCVVVDVEHEDPEVKFNWYVDGVEVHNAKTKPREEQYNSTYRVVSVLTVLHQDWLNGKEYKCKVSNKAFPAPIEKTISKAKGQPREPQVYTLPPSREEMTKNQVSLTCLVKGFYPSDIAVEWESNGQPENNYKTTPPVLDSDGSFFLYSKLTVDKSRWQQGNVFSCSVMHEALHNHYTQKSLSLSPGK
light: SYELTQPPSVSVSPGQTASITCSGDNIGDQYAHWYQQKPGQSPVLVIYQDKNRPSGIPERFSGSNSGNTATLTISGTQAMDEADYYCATYTGFGSLAVFGGGTKLTVLGQPKAAPSVTLFPPSSEELQANKATLVCLISDFYPGAVTVAWKADSSPVKAGVETTTPSKQSNNKYAASSYLSLTPEQWKSHRSYSCQVTHEGSTVEKTVAPTECS
notes: copies: 2 + 2
Consider B1, for which the Kd in test [1] was found to be 120 nM; in test [2] it was 81 nM; in [3] it was 110 nM; in [7] it was 13.4 nM. Besides, the koff in [1] was found to be 0.086 s⁻¹; in test [2], 0.019 s⁻¹; in test [3], 0.028 s⁻¹; in test [7] it was 0.0103 s⁻¹. Besides, the association rate constant (kon) in [1] amounted to 710000 M⁻¹ s⁻¹; in test [2] it was 240000 M⁻¹ s⁻¹; in [3] it was 260000 M⁻¹ s⁻¹; in [7] it was 770000 M⁻¹ s⁻¹. Moreover, the binding result in [4] is “no binding (tested: 300 nM)”; in [5], “no binding (tested: 300 nM)”; in test [6] it was “no binding (tested: 300 nM)”; in test [8] it was “binds”.

B2: anti-CD137 IgG4 with Fc variant G4m28 (antibody)
heavy: EVQLVQSGAEVKKPGESLRISCKGSGYSFSTYWISWVRQMPGKGLEWMGKIYPGDSYTNYSPSFQGQVTISADKSISTAYLQWSSLKASDTAMYYCARGYGIFDYWGQGTLVTVSSASTKGPSVFPLAPCSRSTSESTAALGCLVKDYFPEPVTVSWNSGALTSGVHTFPAVLQSSGLYSLSSVVTVPSSSLGTKTYTCNVDHKPSNTKVDKRVESKYGPPCPPCPAPEFLGPSVFLFPPKPKDTLMISRTPEVTCVVVDVSQEDPEVQFNWYVDGVEVHNAKTKPREEQFNSTYRVVSVLTVLHQDWLNGKEYKCKVSNKGFPSSIEKTISKAKGQPREPQVYTLPPSQEEMTKNQVSLTCLVKGFYPSDIAVEWESNGQPENNYKTTPPVLDSDGSFFLYSRLTVDKSRWQEGNVFSCSVMHEALHNHYTQKSLSLSLGK
light: B1 light
notes: copies: 2 + 2
As to B2, the dissociation constant (Kd) in [9] was determined as 56 nM; in [10], 1800 nM; in test [11] it was 180 nM; in test [12], 20 nM. The koff was found to be 0.027 s⁻¹ in test [9], 0.055 s⁻¹ in test [10], 0.034 s⁻¹ in [11] and 0.012 s⁻¹ in test [12]. Besides, the kon in [9] was determined as 490000 M⁻¹ s⁻¹; in test [10] it was 31000 M⁻¹ s⁻¹; in [11], 190000 M⁻¹ s⁻¹; in test [12] it was 580000 M⁻¹ s⁻¹. Besides, the binding result in [8] is on record as “binds”.

B3: anti-CD137 IgG4 with Fc variant G4m29 (antibody)
heavy: B2 heavy with S262E
light: B1 light
notes: copies: 2 + 2
Regarding B3, the Kd came out at 44 nM in test [9], 260 nM in [10], 78 nM in [11] and 23 nM in test [12]. For the same molecule, the koff in [9] came to 0.023 s⁻¹; in [10], 0.027 s⁻¹; in test [11], 0.013 s⁻¹; in test [12], 0.013 s⁻¹. For the same molecule, the kon in test [9] was determined as 520000 M⁻¹ s⁻¹; in test [10], 100000 M⁻¹ s⁻¹; in test [11], 170000 M⁻¹ s⁻¹; in test [12], 560000 M⁻¹ s⁻¹. Besides, the binding result in test [8] is given as “binds”.

B4: anti-CD137 IgG2 with Fc variant G2m19 (antibody)
heavy: EVQLVQSGAEVKKPGESLRISCKGSGYSFSTYWISWVRQMPGKGLEWMGKIYPGDSYTNYSPSFQGQVTISADKSISTAYLQWSSLKASDTAMYYCARGYGIFDYWGQGTLVTVSSASTKGPSVFPLAPCSRSTSESTAALGCLVKDYFPEPVTVSWNSGALTSGVHTFPAVLQSSGLYSLSSVVTVPSSNFGTQTYTCNVDHKPSNTKVDKTVERKCCVECPPCPAPPVASVFLFPPKPKDTLMISRTPEVTCVVVDVEHEDPEVQFNWYVDGVEVHNAKTKPREEQFNSTFRVVSVLTVVHQDWLNGKEYKCKVSNKGFPAPIEKTISKTKGQPREPQVYTLPPSREEMTKNQVSLTCLVKGFYPSDIAVEWESNGQPENNYKTTPPMLDSDGSFFLYSKLTVDKSRWQQGNVFSCSVMHEALHNHYTQKSLSLSPGK
light: B1 light
notes: copies: 2 + 2
For the molecule B4, the binding result in test [13] is “no binding (tested: 300 nM)”; in [16] it was “no binding (tested: 300 nM)”; in [17], “no binding (tested: 300 nM)”; in test [18], “no binding (tested: 300 nM)”; in test [20], “no binding (tested: 10 ug/mL)”. Besides, the Kd in [14] worked out at 336 nM; in test [15] it was 240 nM; in test [19], 35.4 nM. Besides, the koff in test [14] turned out to be 0.0836 s⁻¹; in test [15], 0.0387 s⁻¹; in test [19] it was 0.00941 s⁻¹. Also, the on-rate constant (kon) in test [14] came out at 249000 M⁻¹ s⁻¹; in [15], 162000 M⁻¹ s⁻¹; in test [19], 265000 M⁻¹ s⁻¹.

(Values after patent US20200392227A1 (LYVGEN BIOPHARMA, published 2020).)
